Results taken from patent US9555076B2, “Neuregulin based methods and compositions for treating cardiovascular diseases” (Zensun (Shanghai) Science & Technology, Co., Ltd., priority 2002, dated 2017).

Columns and labels:
[1] = test system: toxic myocarditis caused by Adriamycin in rat; test: Heart size (heart weight/body weight, wall thickness), Adriamycin rat model; format: in vivo, SD rat; settings: Adriamycin model
Description: Heart was extirpated after thoracotomy (auricle should be reserved), the heart weight was measured after dried with absorbent paper, ratio of heart weight/body weight calculated; outer diameter of the heart was measured at ½ site of the vertically standing heart; medium part of the left ventricle was crosswise cut open, maximal thickness of free wall of the left ventricle measured; the heart was fixed with 10% formaldehyde, paraffin embedded and HE stained, observation of the myocardial structure carried out under optic microscope, give out pathologic score.

[2] = test system: acute myocardial injury caused by viral (Coxsackie B3) infection in mice; test: Echocardiography heart function, mice infected with Coxsackie B3 virus; format: in vivo, BALB/C mice
Description: Drug administration of both the testing drug group and the model group was intravenous injection into the tail vein of mice, once every day (qd), for consecutive 5 days, volume of each of the drug administered was 0.2 ml/animal.
0.2 ml of 100×TCID50 CVB3 provided by Zhong Shan Hospital affiliated to Fudan University was injected intra-abdominally and established myocarditis model. Within the following week, the mouse manifested pilo-erection, depilation, emaciation, dullness and death, about half of the tested animals died at the 8th day.
Intravenous injection of the testing drug into the tail vein was carried out the same day of intra-abdominal viral infection in mice, the injection was performed for consecutive 5 days, animal survival rate was monitored, after completion of the experiment, echocardiograph, myocardial pathologic examination, serum troponin determination were carried out.
Chest depilating was performed at the 7th day of viral injection, then the mouse was fixed on special made fixed mount and echocardiograph was carried out with S12 high-frequency probe, the main index included: • EF: ejection fraction of left ventricle, being major index reflecting ejection function of left ventricle; • FS: shortening fraction of left ventricle, index reflecting contraction function of left ventricle; • LVDd: diastolic maximal inner diameter (cm); • LVDs: systolic minimal inner diameter (cm). 7.3.3.2 Determination of Serum Troponin I (cTnI) in Mice
• Normal mice control group, model group and testing drug group were set up; • Normal mice control group (n=10); • Model group (n=20): Prepared buffer solution was injected; • Testing drug group (n=20): 30 μg/kg of rhNRG-1 β was administered for 3, 5 and 7 consecutive days as three difference therapeutic courses with 20 animals assigned for each group; • Placebo control group (n=20): Intra-abdominal injection of non-CVB3 freeze-thaw cellular supernatant, 0.2 ml/animal. 10.2 Dosage Set Up, Preparation of Testing Drug, Route of Drug Administration, Times of Drug Administration, Concentration and Volume of the Testing Drug • rhNRG-1β was diluted with preparation buffer solution (10 mM PB, 0.2% human serum albumin, 5% mannitol to needed concentration; • Three drug administration groups were set up, intravenous injection for consecutive 3-day, 5-day and 7-day, drug volume for each dose was 0.2 ml/animal; • Drug administration of the model group was intravenous injection into the tail vein of mice, once every day (qd), for consecutive 7 days, drug volume for each dose was 0.2 ml/animal. 7.3 Method of the Experiment 7.3.1 Set Up of Acute Viral Myocariditis Animal Model in Mice

[3] = 7.5 μg/kg iv qd × 5, 7th day, (I)
[4] = 7.5 μg/kg iv qd × 5, 7th day, (II)
[5] = 15 μg/kg iv qd × 5, 7th day, (I)
[6] = 15 μg/kg iv qd × 5, 7th day, (I), listed as rhNRG-1β
[7] = 15 μg/kg iv qd × 5, 7th day, (II)
[8] = 30 μg/kg iv qd × 3, 7th day, (I)
[9] = 30 μg/kg iv qd × 3, 7th day, (I), listed as rhNRG-1β
[10] = 30 μg/kg iv qd × 3, 7th day, (II)
[11] = 30 μg/kg iv qd × 5, 7th day, (I)
[12] = 30 μg/kg iv qd × 5, 7th day, (I), listed as hNRG-1β
[13] = 30 μg/kg iv qd × 5, 7th day, (II)
[14] = 30 μg/kg iv qd × 5, 7th day, Example 5 (I)
[15] = 30 μg/kg iv qd × 5, 7th day, Example 5 (I), listed as rhNRG-1β
[16] = 30 μg/kg iv qd × 5, 7th day, Example 5 (II)
[17] = 30 μg/kg iv qd × 7, 7th day, (I)
[18] = 30 μg/kg iv qd × 7, 7th day, (I), listed as rhNRG-1β
[19] = 30 μg/kg iv qd × 7, 7th day, (II)

B1: rhNRG-1 β: Recombinant human neuregulin fragment of 61 amino acid (SEQ ID NO:4), 3 disulfide bonds, expressed in E. coli (protein, listed as Homo sapiens)
chain: SHLVKCAEKEKTFCVNGGECFMVKDLSNPSRYLCKCPNEFTGDRCQNYVMASFYKAEELYQ
modifications: disulfide (positions not given here)
Heart weight/body weight ([1]; 10 μg/kg iv qd × 10 d, (I)): 0.00301 ± 0.0002 | Left ventricle wall thickness ([1]; 10 μg/kg iv qd × 10 d, (I)): 1.773 ± 0.115 mm | Heart weight/body weight ([1]; 10 μg/kg iv qd × 10 d, (II)): 0.00307 ± 0.000 | Left ventricular wall thickness ([1]; 10 μg/kg iv qd × 10 d, (II)): 2.18 ± 0.21 mm | Heart weight/body weight ([1]; 20 μg/kg iv qd × 10 d, (I)): 0.0032 ± 0.0001 | Left ventricle wall thickness ([1]; 20 μg/kg iv qd × 10 d, (I)): 1.789 ± 0.133 mm | Heart weight/body weight ([1]; 20 μg/kg iv qd × 10 d, (II)): 0.00303 ± 0.000 | Left ventricular wall thickness ([1]; 20 μg/kg iv qd × 10 d, (II)): 2.15 ± 0.24 mm | Heart weight/body weight ([1]; 40 μg/kg iv qd × 10, (II)): 0.00297 ± 0.000 | Left ventricular wall thickness ([1]; 40 μg/kg iv qd × 10, (II)): 2.06 ± 0.2 mm | Heart weight/body weight ([1]; 40 μg/kg iv qd × 10 d, (I)): 0.0031 ± 0.0002 | Left ventricle wall thickness ([1]; 40 μg/kg iv qd × 10 d, (I)): 1.813 ± 0.12 mm | EF [2, 3]: 78.1 ± 9.3% | FS [2, 3]: 41.7 ± 9.6% | LVDd [2, 3]: 0.191 ± 0.012 cm | LVDs [2, 3]: 0.114 ± 0.028 cm | EF [2, 4]: 71.9 ± 6.69% | FS [2, 4]: 35.7 ± 5.60% | LVDd [2, 4]: 0.213 ± 0.009 cm | LVDs [2, 4]: 0.133 ± 0.015 cm | EF [2, 5]: 86.0±2.9% | FS [2, 5]: 50.7±4.3% | LVDd [2, 5]: 0.189±0.008 cm | LVDs [2, 5]: 0.099±0.027 cm | EF [2, 6]: 81.3 ± 6.28 % | FS [2, 6]: 44.5 ± 8.27 % | LVDd [2, 6]: 0.189 ± 0.008 cm | LVDs [2, 6]: 0.099 ± 0.027 cm | EF [2, 7]: 81.6 ± 4.59 % | FS [2, 7]: 44.9 ± 5.68 % | LVDd [2, 7]: 0.201 ± 0.011 cm | LVDs [2, 7]: 0.114 ± 0.018 cm | EF [2, 8]: 73.1±6.6% | FS [2, 8]: 36.7 ± 4.7% | LVDd [2, 8]: 0.194 ± 0.008 cm | LVDs [2, 8]: 0.123±0.012 cm | EF [2, 9]: 73.1 ± 6.6% | LVDs [2, 9]: 0.123 ± 0.012 cm | EF [2, 10]: 81.0 ± 5.4% | FS [2, 10]: 43.9 ± 5.1% | LVDd [2, 10]: 0.211 ± 0.016 cm | LVDs [2, 10]: 0.121 ± 0.016 cm | EF [2, 11]: 90.2±2.5% | FS [2, 11]: 55.7±2.1% | LVDd [2, 11]: 0.187±0.006 cm | LVDs [2, 11]: 0.085±0.009 cm | EF [2, 12]: 90.2 ± 2.5 % | FS [2, 12]: 55.7 ± 2.1 % | LVDd [2, 12]: 0.187 ± 0.006 cm | LVDs [2, 12]: 0.085 ± 0.009 cm | EF [2, 13]: 87.7 ± 3.76 % | FS [2, 13]: 51.8 ± 5.24 % | LVDd [2, 13]: 0.196 ± 0.011 cm | LVDs [2, 13]: 0.094 ± 0.011 cm | EF [2, 14]: 86.8±4.4% | FS [2, 14]: 51.9±5.8% | LVDd [2, 14]: 0.187 ± 0.006 cm | LVDs [2, 14]: 0.090±0.011 cm | EF [2, 15]: 86.8 ± 4.4% | FS [2, 15]: 51.9 ± 5.8% | LVDs [2, 15]: 0.090 ± 0.011 cm | EF [2, 16]: 85.8 ± 4.205% | FS [2, 16]: 50.0 ± 6.350% | LVDd [2, 16]: 0.199 ± 0.000 cm | LVDs [2, 16]: 0.100 ± 0.014 cm | EF [2, 17]: 87.0±3.3% | FS [2, 17]: 51.8±5.1% | LVDd [2, 17]: 0.192 ± 0.008 cm | LVDs [2, 17]: 0.092±0.012 cm | EF [2, 18]: 87.0 ± 3.3% | FS [2, 18]: 51.8 ± 5.1% | LVDs [2, 18]: 0.092 ± 0.012 cm | EF [2, 19]: 87.283 ± 1.694% | FS [2, 19]: 52.367 ± 1.847% | LVDd [2, 19]: 0.194 ± 0.017 cm | LVDs [2, 19]: 0.092 ± 0.008 cm
